According to US20030096349, “N4 virion single-stranded DNA dependent RNA polymerase” (The University of Chicago, published 2003):

Columns and labels:
[1] = target: T1, mini-vRNAP (N4 virion RNA polymerase central domain) (Bacteriophage N4, UniProt Q859P9 SEQ:38-1143); assay: filter; stem shortened by two bp, affinity unchanged; settings: tags: N-terminal His6 (pBAD B); TALON and MonoQ; hairpin, 3 bp stem
T1 chain: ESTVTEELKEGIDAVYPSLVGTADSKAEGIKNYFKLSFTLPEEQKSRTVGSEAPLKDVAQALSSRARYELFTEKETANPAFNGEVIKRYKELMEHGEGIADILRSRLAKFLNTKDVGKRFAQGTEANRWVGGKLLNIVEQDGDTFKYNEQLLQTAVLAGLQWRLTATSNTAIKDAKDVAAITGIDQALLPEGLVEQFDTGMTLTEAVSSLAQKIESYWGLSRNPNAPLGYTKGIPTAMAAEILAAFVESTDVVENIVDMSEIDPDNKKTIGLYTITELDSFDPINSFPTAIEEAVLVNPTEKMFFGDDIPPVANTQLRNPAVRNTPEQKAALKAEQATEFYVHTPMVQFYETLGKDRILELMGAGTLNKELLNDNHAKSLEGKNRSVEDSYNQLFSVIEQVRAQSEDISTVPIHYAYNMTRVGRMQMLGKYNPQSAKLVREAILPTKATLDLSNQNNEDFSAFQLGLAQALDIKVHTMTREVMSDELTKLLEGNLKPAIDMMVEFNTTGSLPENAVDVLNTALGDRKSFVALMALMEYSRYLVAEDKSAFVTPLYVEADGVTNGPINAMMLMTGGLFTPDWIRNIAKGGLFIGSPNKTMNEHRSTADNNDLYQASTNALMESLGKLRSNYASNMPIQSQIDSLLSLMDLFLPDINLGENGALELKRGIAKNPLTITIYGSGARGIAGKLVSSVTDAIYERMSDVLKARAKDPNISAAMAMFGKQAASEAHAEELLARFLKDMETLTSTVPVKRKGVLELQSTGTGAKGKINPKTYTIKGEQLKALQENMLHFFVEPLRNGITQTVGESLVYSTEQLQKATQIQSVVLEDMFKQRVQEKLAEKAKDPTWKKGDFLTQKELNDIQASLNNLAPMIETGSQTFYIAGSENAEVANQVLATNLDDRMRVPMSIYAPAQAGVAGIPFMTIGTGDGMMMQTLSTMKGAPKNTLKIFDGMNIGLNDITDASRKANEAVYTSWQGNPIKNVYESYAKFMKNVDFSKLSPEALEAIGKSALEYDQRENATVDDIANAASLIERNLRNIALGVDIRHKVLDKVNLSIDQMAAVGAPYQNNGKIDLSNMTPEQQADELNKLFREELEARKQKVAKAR
Experimental: (§1) The effect of changes in the stem length of the hairpin on the ability of mini-vRNAP to bind P2 promoter DNA was analyzed. […] The stem can be shortened by two base pairs without change in the binding affinity. […] No binding is observed if one more nucleotide is removed and the loop cannot form.

[2] = target: T1, mini-vRNAP (N4 virion RNA polymerase …); assay: filter; wild type affinity; crosslinks; settings: tags: N-terminal His6 (pBAD B); TALON and MonoQ; label: 32P; hairpin
Text: To study the sequence determinants of promoter binding, 20 base-long promoter oligonucleotides, containing the wild type vRNAP promoter P2 sequence and substituted at every position with a single 5-Iodo-dU, were used. Whenever substitutions were made in the stem, the corresponding pairing base was changed to A. These oligonucleotides were ³²P end-labeled and used to determine the enzyme's affinity for promoter DNAs by a filter binding assay and the ability to crosslink to mini-vRNAP upon UV irradiation at 320 nm.

[3] = target: T2, mini-vRNAP Y678F (Bacteriophage N4, UniProt Q859P9 SEQ:38-1143); assay: UV crosslinking as well as wild type enzyme; settings: tags: N-terminal His6; label: 32P; hairpin
T2 chain: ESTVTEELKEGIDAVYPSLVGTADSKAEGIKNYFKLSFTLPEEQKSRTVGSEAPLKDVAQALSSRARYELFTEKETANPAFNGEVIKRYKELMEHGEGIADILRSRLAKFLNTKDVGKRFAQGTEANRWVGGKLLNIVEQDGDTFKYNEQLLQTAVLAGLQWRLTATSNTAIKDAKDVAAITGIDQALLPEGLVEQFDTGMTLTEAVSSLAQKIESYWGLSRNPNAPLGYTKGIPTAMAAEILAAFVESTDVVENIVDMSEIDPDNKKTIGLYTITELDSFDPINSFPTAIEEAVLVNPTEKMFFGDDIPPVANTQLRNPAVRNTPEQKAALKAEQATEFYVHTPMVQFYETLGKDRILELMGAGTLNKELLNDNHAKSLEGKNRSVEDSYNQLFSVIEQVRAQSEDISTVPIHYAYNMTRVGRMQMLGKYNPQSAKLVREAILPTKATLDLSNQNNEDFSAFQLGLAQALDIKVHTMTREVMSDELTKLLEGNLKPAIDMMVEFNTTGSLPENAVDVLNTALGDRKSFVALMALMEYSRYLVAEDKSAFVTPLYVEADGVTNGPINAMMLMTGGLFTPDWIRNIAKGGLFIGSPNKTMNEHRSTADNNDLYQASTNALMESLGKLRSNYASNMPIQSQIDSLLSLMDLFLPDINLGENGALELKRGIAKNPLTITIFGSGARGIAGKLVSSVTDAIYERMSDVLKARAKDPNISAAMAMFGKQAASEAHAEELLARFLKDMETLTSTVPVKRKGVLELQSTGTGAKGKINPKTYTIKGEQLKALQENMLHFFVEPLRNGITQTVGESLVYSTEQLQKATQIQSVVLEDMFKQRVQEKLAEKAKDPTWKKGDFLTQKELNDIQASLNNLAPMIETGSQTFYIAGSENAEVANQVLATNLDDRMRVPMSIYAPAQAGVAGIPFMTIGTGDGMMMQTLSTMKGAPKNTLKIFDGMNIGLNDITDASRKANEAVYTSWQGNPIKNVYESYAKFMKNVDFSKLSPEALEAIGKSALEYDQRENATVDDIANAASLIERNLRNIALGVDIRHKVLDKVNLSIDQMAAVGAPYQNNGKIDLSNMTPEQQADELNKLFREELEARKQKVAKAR

[4] = target: T1, mini-vRNAP (N4 virion RNA polymerase …); assay: filter; range given for two or one remaining loop-closing bp; settings: tags: N-terminal His6 (pBAD B), TALON and MonoQ, hairpin
Experimental: as §1

[5] = target: T3, mini-vRNAP, non-His-tagged (Bacteriophage N4, UniProt Q859P9 SEQ:2-1107); assay: pulldown; DNA-affinity column, pH 5-9, 50 mM-2 M NaCl, 2 mM EDTA in extract; best yield; settings: label: biotin; hairpin
T3 chain: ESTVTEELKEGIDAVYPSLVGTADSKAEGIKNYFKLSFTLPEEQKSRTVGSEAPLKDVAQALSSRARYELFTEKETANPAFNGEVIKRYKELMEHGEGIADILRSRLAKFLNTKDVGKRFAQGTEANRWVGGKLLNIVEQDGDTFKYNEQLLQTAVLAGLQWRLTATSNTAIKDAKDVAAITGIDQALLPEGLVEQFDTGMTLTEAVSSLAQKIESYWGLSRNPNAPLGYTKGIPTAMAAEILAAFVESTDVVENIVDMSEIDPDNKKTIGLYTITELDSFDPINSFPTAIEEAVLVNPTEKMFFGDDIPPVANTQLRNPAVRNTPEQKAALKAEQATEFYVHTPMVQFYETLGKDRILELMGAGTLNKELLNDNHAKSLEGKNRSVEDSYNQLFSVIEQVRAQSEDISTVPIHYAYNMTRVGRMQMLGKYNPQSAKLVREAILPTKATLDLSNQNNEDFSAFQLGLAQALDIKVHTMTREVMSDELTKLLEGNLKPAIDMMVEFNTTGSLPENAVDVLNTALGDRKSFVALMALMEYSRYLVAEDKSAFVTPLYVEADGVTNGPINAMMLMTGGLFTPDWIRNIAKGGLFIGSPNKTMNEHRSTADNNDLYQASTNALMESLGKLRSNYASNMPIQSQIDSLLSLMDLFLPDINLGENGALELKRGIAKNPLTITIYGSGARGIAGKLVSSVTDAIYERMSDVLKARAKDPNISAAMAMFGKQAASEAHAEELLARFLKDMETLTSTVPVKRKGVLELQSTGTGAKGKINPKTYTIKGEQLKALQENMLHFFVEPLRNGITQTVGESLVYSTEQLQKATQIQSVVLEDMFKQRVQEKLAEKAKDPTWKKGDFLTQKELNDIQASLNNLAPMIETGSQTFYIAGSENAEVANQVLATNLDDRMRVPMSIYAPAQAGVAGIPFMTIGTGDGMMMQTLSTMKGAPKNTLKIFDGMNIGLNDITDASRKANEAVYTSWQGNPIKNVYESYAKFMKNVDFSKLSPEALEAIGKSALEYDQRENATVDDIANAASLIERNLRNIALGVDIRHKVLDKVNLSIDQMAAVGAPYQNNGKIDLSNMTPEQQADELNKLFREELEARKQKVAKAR
Experimental: (§2) This property was used for purification of non-his tagged mini-vRNAP (SEQ ID NO:4) on a DNA-affinity column. The column was prepared by adsorbing a 5′ biotinylated N4 promoter-containing DNA oligonucleotide onto the matrix of a 1 ml HiTrap Streptavidin column (Pharmacia/Amersham Cat.#17-5112-01) according to the manufacturer's instructions. A debris-free sonicate of bacterial cells expressing mini-vRNAP was passed through the column. […] Nucleases in the extract are inhibited by addition of 2 mM EDTA. After washing the column, mini-vRNAP was eluted with warm (25° C.) water; the elution temperature was raised from 4° C. to 25° C. to increase mini-vRNAP recovery. For complete elution, the temperature can be raised up to 43° C. without significant change in the quality of the preparation. Elution under these conditions occurs due to the removal of metal ions and consequent melting of the promoter hairpin and dissociation of mini-vRNAP. Different DNA oligonucleotides containing variants of the P2 promoter (SEQ ID NOS:16-19), were used in DNA-affinity columns and tested in mini-vRNAP affinity purification. The best yield was achieved using the DNA oligonucleotide of SEQ ID NO:16. […]

[6] = target: T3, mini-vRNAP, non-His-tagged; assay: pulldown; DNA-affinity column; lower yield than SEQ 16; settings: label: biotin; hairpin
Experimental: as §2

[7] = target: T3, mini-vRNAP, non-His-tagged; assay: pulldown; DNA-affinity column; elutes at lower temperature than SEQ 16; settings: label: biotin
Experimental: as §2

[8] = target: T1, mini-vRNAP (N4 virion RNA polymerase …); assay: filter; stem lengthened by two bp, affinity unchanged; settings: tags: N-terminal His6 (pBAD B); TALON and MonoQ; hairpin, 7 bp stem
[9] = target: T1, mini-vRNAP (N4 virion RNA polymerase …); assay: filter; no binding when loop cannot form; settings: tags: N-terminal His6 (pBAD B), TALON and MonoQ
Experimental: as §1

[10] = target: T1, mini-vRNAP (N4 virion RNA polymerase …); assay: filter; two orders of magnitude reduction; settings: tags: N-terminal His6 (pBAD B); TALON and MonoQ; hairpin, 8 bp stem

Binder: TCCAAAAGAAGCGGAGCT (ssDNA) [P2 stem shortened to 3 bp]
- Kd [1]: ~1 nM

Binder: TCCAAAAGAAGCGGAGCTTC (ssDNA, 5-iodo-dU at +1) [P2 20-mer 5-iodo-dU at +1]
- binding result [2]: binds

Binder: TCCAAAAGAAGCGGAGCTTC (ssDNA, 5-iodo-dU at +2) [P2 20-mer 5-iodo-dU at +2]
- binding result [2]: binds

Binder: TCCAAAAGAAGCGGAGCTTC (ssDNA, 5-iodo-dU at +3) [P2 20-mer 5-iodo-dU at +3]
- binding result [2]: binds
- binding result [3]: binds

Binder: TCCAAAAGAAGCGGAGCTTC (ssDNA, 5-iodo-dU at -11 (loop centre)) [P2 20-mer 5-iodo-dU at -11]
- binding result [3]: binds

Binder: TCCAAAAGAAGCGGAGC (ssDNA) [P2 stem shortened to 2 bp]
- Kd ([4]; 2 bp stem): 4.47 nM

Binder: GGCATTACTTCATCCAAAAGAAGCGGAGCTTC (ssDNA, 5' biotin) [P2 affinity oligo SEQ 16]
- binding result [5]: binds

Binder: GGCCATCCATTACTTCATCCAAAAGAAGCGGAGCTTC (ssDNA, 5' biotin) [P2 affinity oligo SEQ 17]
- binding result [6]: binds

Binder: GGATCCAAAAGAAGCGGAGCTTC (ssDNA, 5' biotin) [P2 affinity oligo SEQ 18]
- binding result [6]: binds

Binder: GGCATTACTTCATCCAAAAGAAGCTGAGCTTC (ssDNA, 5' biotin) [P2 affinity oligo SEQ 19 (loop/stem variant)]
- binding result [7]: binds

Binder: GGCATTACTTCATCCAAAAGAAGCGGAGC (ssDNA, 5' biotin) [P2 affinity oligo SEQ 20 (shortened stem)]
- binding result [7]: binds

Binder: TCCAAAAGAAGCGGAG (ssDNA) [P2 stem shortened to 1 bp]
- Kd ([4]; 1 loop-closing bp): 4.47 nM

Binder: TCCAAAAGAAGCGGAGCTTCTT (ssDNA, [none]) [P2 stem lengthened to 7 bp]
- Kd [8]: ~1 nM

Binder: TCCAAAAGAAGCGGA (ssDNA) [P2 without stem]
- binding result [9]: no binding

Binder: TCCAAAAGAAGCGGAGCTTCTTT (ssDNA, [none]) [P2 stem lengthened, base paired to -2]
- binding signal [10]: ~100 fold lower affinity
